Data on eight molecules can be found in article PMC6056499, “A systematic dissection of sequence elements determining β-Klotho and FGF interaction and signaling” (Scientific Reports, 2018).

The experiment has as its target human β-Klotho extracellular domain (aa1–992) fused with a 6 × His tag at the C-terminus, Q86Z14. The experiment is described as follows: solid-phase binding assay. The following applies: chain shown with the change;; parent: est. 1.0; read off a plot.

Sequence of human β-Klotho extracellular domain (aa1–992) fused with a 6 × His tag at the C-terminus, Q86Z14 (Q86Z14 53-992): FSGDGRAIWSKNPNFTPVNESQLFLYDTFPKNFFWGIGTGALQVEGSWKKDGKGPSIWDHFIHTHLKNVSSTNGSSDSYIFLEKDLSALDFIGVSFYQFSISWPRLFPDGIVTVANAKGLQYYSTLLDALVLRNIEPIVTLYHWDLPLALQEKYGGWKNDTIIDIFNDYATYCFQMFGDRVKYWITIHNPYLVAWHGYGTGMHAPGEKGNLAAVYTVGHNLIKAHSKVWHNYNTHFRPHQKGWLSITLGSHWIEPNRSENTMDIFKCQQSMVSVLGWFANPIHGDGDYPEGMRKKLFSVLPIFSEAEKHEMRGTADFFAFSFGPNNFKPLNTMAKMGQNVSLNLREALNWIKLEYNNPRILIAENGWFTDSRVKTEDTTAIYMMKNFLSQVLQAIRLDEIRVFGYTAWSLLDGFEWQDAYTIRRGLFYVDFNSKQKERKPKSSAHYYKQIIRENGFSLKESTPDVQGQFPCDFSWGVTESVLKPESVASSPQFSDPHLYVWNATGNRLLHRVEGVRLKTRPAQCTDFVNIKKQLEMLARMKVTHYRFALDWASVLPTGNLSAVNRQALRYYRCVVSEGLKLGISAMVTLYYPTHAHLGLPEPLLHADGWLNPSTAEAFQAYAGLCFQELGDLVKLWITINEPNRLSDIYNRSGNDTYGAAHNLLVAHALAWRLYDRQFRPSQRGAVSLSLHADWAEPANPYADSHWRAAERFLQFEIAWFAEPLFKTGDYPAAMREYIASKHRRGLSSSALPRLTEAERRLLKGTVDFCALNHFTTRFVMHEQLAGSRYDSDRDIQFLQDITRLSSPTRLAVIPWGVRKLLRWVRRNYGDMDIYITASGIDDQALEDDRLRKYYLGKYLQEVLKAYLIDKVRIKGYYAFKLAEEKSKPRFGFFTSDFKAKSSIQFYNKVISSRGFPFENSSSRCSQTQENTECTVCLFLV

B1: mature human FGF21 polypeptide fused with the human Fc fragment at the N-terminus (Fc-FGF21), wild type, Q9NSA1 191S-A (protein)
chain: HPIPDSSPLLQFGGQVRQRYLYTDDAQQTEAHLEIREDGTVGGAADQSPESLLQLKALKPGVIQILGVKTSRFLCQRPDGALYGSLHFDPEACSFRELLLEDGYNVYQSEAHGLPLHLPGNKSPHRDPAPRGPARFLPLPGLPPALPEPPGILAPQPPDVGSADPLSMVGPSQGRSPSYAS
As to B1, the ratio to parent amounted to 0.6.

B2: mature human FGF21 polypeptide fused with the human Fc fragment at the N-terminus (Fc-FGF21), wild type, Q9NSA1 206S-R (protein)
chain: HPIPDSSPLLQFGGQVRQRYLYTDDAQQTEAHLEIREDGTVGGAADQSPESLLQLKALKPGVIQILGVKTSRFLCQRPDGALYGSLHFDPEACSFRELLLEDGYNVYQSEAHGLPLHLPGNKSPHRDPAPRGPARFLPLPGLPPALPEPPGILAPQPPDVGSSDPLSMVGPSQGRSPRYAS
B2: the ratio to parent worked out at 170.

B3: mature human FGF21 polypeptide fused with the human Fc fragment at the N-terminus (Fc-FGF21), wild type, Q9NSA1 206S-A (protein)
chain: HPIPDSSPLLQFGGQVRQRYLYTDDAQQTEAHLEIREDGTVGGAADQSPESLLQLKALKPGVIQILGVKTSRFLCQRPDGALYGSLHFDPEACSFRELLLEDGYNVYQSEAHGLPLHLPGNKSPHRDPAPRGPARFLPLPGLPPALPEPPGILAPQPPDVGSSDPLSMVGPSQGRSPAYAS
Consider B3, for which the ratio to parent stood at 120.

B4: mature human FGF21 polypeptide fused with the human Fc fragment at the N-terminus (Fc-FGF21), wild type, Q9NSA1 204S-A (protein)
chain: HPIPDSSPLLQFGGQVRQRYLYTDDAQQTEAHLEIREDGTVGGAADQSPESLLQLKALKPGVIQILGVKTSRFLCQRPDGALYGSLHFDPEACSFRELLLEDGYNVYQSEAHGLPLHLPGNKSPHRDPAPRGPARFLPLPGLPPALPEPPGILAPQPPDVGSSDPLSMVGPSQGRAPSYAS
Take B4: the ratio to parent came out at 120.

B5: mature human FGF21 polypeptide fused with the human Fc fragment at the N-terminus (Fc-FGF21), wild type, Q9NSA1 207Y-A (protein)
chain: HPIPDSSPLLQFGGQVRQRYLYTDDAQQTEAHLEIREDGTVGGAADQSPESLLQLKALKPGVIQILGVKTSRFLCQRPDGALYGSLHFDPEACSFRELLLEDGYNVYQSEAHGLPLHLPGNKSPHRDPAPRGPARFLPLPGLPPALPEPPGILAPQPPDVGSSDPLSMVGPSQGRSPSAAS
As for B5, the ratio to parent came to 180.

B6: mature human FGF21 polypeptide fused with the human Fc fragment at the N-terminus (Fc-FGF21), wild type, Q9NSA1 207Y-R (protein)
chain: HPIPDSSPLLQFGGQVRQRYLYTDDAQQTEAHLEIREDGTVGGAADQSPESLLQLKALKPGVIQILGVKTSRFLCQRPDGALYGSLHFDPEACSFRELLLEDGYNVYQSEAHGLPLHLPGNKSPHRDPAPRGPARFLPLPGLPPALPEPPGILAPQPPDVGSSDPLSMVGPSQGRSPSRAS
In the case of B6, the ratio to parent amounted to 530.

B7: mature human FGF21 polypeptide fused with the human Fc fragment at the N-terminus (Fc-FGF21), wild type, Q9NSA1 204S-R (protein)
chain: HPIPDSSPLLQFGGQVRQRYLYTDDAQQTEAHLEIREDGTVGGAADQSPESLLQLKALKPGVIQILGVKTSRFLCQRPDGALYGSLHFDPEACSFRELLLEDGYNVYQSEAHGLPLHLPGNKSPHRDPAPRGPARFLPLPGLPPALPEPPGILAPQPPDVGSSDPLSMVGPSQGRRPSYAS
With B7, the ratio to parent was 250.

B8: mature human FGF21 polypeptide fused with the human Fc fragment at the N-terminus (Fc-FGF21), wild type, Q9NSA1 191S-R (protein)
chain: HPIPDSSPLLQFGGQVRQRYLYTDDAQQTEAHLEIREDGTVGGAADQSPESLLQLKALKPGVIQILGVKTSRFLCQRPDGALYGSLHFDPEACSFRELLLEDGYNVYQSEAHGLPLHLPGNKSPHRDPAPRGPARFLPLPGLPPALPEPPGILAPQPPDVGSRDPLSMVGPSQGRSPSYAS
As for B8, the ratio to parent came to 350.
